This passage reports koff and kon results from patent US20100098708A1.

Sequences and labels used below:
B1: H3-3F4 Fab (Fab, V domains shown)
VH: QVTLRESGPALVKPTQTLTLTCTFSGFSLSTAGMSVGWIRQPPGKALEWLADIWWDDKKDYNPSLKSRLTISKDTSKNQVVLKVTNMDPADTATYYCARDMIFNWYFDVWGQGTTVTVSS
VL: DIQMTQSPSTLSASVGDRVTITCSASSSVGYMHWYQQKPGKAPKLLIYDTFKLASGVPSRFSGSGSGTEFTLTISSLQPDDFATYYCFQGSGYPFTFGGGTKVEIK
B2: P12f4 Fab (Fab, V domains shown)
VH: QVTLRESGPALVKPTQTLTLTCTFSGFSLSTPGMSVGWIRQPPGKALEWLADIWWDGKKHYNPSLKDRLTISKDTSKNQVVLKVTNMDPADTATYYCARDMIFNFYFDVWGQGTTVTVSS
VL: DIQMTQSPSTLSASVGDRVTITCSLSSRVGYMHWYQQKPGKAPKLLIYDTRGLPSGVPSRFSGSGSGTEFTLTISSLQPDDFATYYCFQGSGYPFTFGGGTKVEIK
B3: 6H8 Fab (Fab, V domains shown)
VH: QVTLRESGPALVKPTQTLTLTCTFSGFSLSTAGMSVGWIRQPPGKALEWLADIWWDDKKDYNPSLKSRLTISKDTSKNQVVLKVTNMDPADTATYYCARDMITNFYFDVWGQGTTVTVSS
VL: DIQMTQSPSTLSASVGDRVTITCSASSSVGYMHWYQQKPGKAPKLLIYDTFKLTSGVPSRFSGSGSGTEFTLTISSLQPDDFATYYCFQGSGYPFTFGGGTKVEIK
B4: Y10H6 Fab (Fab, V domains shown)
VH: QVTLRESGPALVKPTQTLTLTCTFSGFSLSTAGMSVGWIRQPPGKALEWLADIWWDDKKDYNPSLKSRLTISKDTSKNQVVLKVTNMDPADTATYYCARDMIFNWYFDVWGQGTTVTVSS
VL: DIQMTQSPSTLSASVGDRVTITCSASSSVGYMHWYQQKPGKAPKLLIYDTRYLSSGVPSRFSGSGSGTEFTLTISSLQPDDFATYYCFQGSGYPFTFGGGTKVEIK
B5: M3H9 Fab (Fab, V domains shown)
VH: QVTLRESGPALVKPTQTLTLTCTFSGFSLSTAGMSVGWIRQPPGKALEWLADIWWDDKKDYNPSLKSRLTISKDTSKNQVVLKVTNMDPADTATYYCARDMIFNWYFDVWGQGTTVTVSS
VL: DIQMTQSPSTLSASVGDRVTITCSASSSVGYMHWYQQKPGKAPKLLIYDTYKQTSGVPSRFSGSGSGTEFTLTISSLQPDDFATYYCFQGSGYPFTFGGGTKVEIK
B6: L1-7E5 Fab (Fab, V domains shown)
VH: QVTLRESGPALVKPTQTLTLTCTFSGFSLSTAGMSVGWIRQPPGKALEWLADIWWDDKKDYNPSLKSRLTISKDTSKNQVVLKVTNMDPADTATYYCARDMITNFYFDVWGQGTTVTVSS
VL: DIQMTQSPSTLSASVGDRVTITCSASSRVGYMHWYQQKPGKAPKLLIYDTFKLASGVPSRFSGSGSGTEFTLTISSLQPDDFATYYCFQGSGYPFTFGGGTKVEIK
B7: DG (aka D95/G93) Fab (Fab, V domains shown)
VH: QVTLRESGPALVKPTQTLTLTCTFSGFSLSTAGMSVGWIRQPPGKALEWLADIWWDDKKDYNPSLKSRLTISKDTSKNQVVLKVTNMDPADTATYYCARDMITNFYFDVWGQGTTVTVSS
VL: DIQMTQSPSTLSASVGDRVTITCSASSSVGYMHWYQQKPGKAPKLLIYDTFKLASGVPSRFSGSGSGTEFTLTISSLQPDDFATYYCFQGSGYPFTFGGGTKVEIK

Values joined by “and” are separate entries in the source; they are usually repeats but may differ in a detail not shown here. Identical values can stand only once.

Chain of RSV F protein (immobilised antigen of Example 6.1) (respiratory syncytial virus) (P03420 26-524): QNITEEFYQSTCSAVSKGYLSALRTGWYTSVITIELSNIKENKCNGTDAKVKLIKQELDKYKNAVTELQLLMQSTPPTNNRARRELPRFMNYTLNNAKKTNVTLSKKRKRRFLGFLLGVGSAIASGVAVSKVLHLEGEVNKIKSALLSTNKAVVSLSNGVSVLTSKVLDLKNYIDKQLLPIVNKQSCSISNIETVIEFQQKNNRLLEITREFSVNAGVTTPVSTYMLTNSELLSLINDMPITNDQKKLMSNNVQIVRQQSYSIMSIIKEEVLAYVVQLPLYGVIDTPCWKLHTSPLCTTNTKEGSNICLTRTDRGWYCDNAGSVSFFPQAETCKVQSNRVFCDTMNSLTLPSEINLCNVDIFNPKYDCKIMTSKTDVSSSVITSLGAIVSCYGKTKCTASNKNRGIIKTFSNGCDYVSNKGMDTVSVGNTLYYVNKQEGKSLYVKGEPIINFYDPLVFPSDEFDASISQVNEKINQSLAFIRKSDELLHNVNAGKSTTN

The experiment has as its target RSV F protein (immobilised antigen of Example 6.1) (respiratory syncytial virus). Put plainly: BIAcore.
As for B1, the koff was 0.000445 s⁻¹ and 0.000402 s⁻¹.

B2 returned a koff of 0.000299 s⁻¹ and a kon of 527000 M⁻¹ s⁻¹.

Consider B3, for which the koff is 0.000178 s⁻¹ and 0.000473 s⁻¹; the kon is 314000 M⁻¹ s⁻¹ and 444000 M⁻¹ s⁻¹.

Turning to B4, the koff worked out at 0.000462 s⁻¹ and the kon came out at 757000 M⁻¹ s⁻¹.

Molecule B5 registered an off-rate constant (koff) of 0.000338 s⁻¹ and a kon of 605000 M⁻¹ s⁻¹.

As to B6, the koff is 0.000192 s⁻¹ and 0.000331 s⁻¹ and 0.000229 s⁻¹.

Consider B7, for which the koff is 0.000167 s⁻¹ and 0.000444 s⁻¹.
